T1: EsCas13d, nuclease-dead (Eubacterium siraeum, UniProt B0MS50, R295A;H300A;R849A;H854A)
T1 sequence: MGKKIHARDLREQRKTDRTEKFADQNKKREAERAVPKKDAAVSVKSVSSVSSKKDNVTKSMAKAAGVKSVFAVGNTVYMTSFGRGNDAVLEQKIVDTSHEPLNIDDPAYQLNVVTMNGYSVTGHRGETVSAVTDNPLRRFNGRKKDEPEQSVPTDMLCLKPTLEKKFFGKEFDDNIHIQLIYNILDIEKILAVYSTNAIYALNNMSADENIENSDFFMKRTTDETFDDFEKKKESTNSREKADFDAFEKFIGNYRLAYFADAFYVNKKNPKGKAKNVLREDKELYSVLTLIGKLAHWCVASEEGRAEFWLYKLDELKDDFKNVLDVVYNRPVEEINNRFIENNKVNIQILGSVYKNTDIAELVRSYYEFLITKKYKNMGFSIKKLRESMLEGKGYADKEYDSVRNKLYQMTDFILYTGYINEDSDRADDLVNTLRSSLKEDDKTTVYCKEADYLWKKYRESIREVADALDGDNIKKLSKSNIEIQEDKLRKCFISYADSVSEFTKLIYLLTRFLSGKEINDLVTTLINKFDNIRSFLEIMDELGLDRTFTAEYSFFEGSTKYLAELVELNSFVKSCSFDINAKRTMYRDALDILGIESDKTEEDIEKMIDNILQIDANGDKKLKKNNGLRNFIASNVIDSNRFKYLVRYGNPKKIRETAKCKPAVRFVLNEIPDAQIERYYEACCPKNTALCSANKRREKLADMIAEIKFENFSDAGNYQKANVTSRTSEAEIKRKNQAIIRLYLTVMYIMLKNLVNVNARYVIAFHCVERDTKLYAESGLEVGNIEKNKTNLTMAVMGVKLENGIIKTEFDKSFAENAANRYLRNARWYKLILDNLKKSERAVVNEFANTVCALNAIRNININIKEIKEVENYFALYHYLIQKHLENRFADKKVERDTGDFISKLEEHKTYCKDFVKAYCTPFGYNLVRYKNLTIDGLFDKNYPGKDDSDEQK

B1: target 1 MT 5'PFS UAG 3'PFS UUG (mixed)
RNA 1: CACCCGUGCAAAAAUGCAGGGGUCUAAAACUGAGCGGAUAACCUCUCUAUGG
RNA 2: GGGAAUGGAUCCACAUCUACGAAUUCUAGCCAUAGAGAGGUUAUCCGCUCAUUGAGAUCGGAAGAGCACACGU
B2: target 1 insA 3' of 8,insC 3' of 1 (mixed)
RNA 1: CACCCGUGCAAAAAUGCAGGGGUCUAAAACUGAGCGGAUAACCUCUCUAUGG
RNA 2: GGGAAUGGAUCCACAUCUACGAAUUCGUACCAUAGAGAGGUUAUACCGCUCACCCGAGAUCGGAAGAGCACACGU
B3: target 1 MT 5'PFS GCA 3'PFS GGA (mixed)
RNA 1: CACCCGUGCAAAAAUGCAGGGGUCUAAAACUGAGCGGAUAACCUCUCUAUGG
RNA 2: GGGAAUGGAUCCACAUCUACGAAUUCGCACCAUAGAGAGGUUAUCCGCUCAGGAAGAUCGGAAGAGCACACGU
B4: target 1 MT 5'PFS CUU 3'PFS CAG (mixed)
RNA 1: CACCCGUGCAAAAAUGCAGGGGUCUAAAACUGAGCGGAUAACCUCUCUAUGG
RNA 2: GGGAAUGGAUCCACAUCUACGAAUUCCUUCCAUAGAGAGGUUAUCCGCUCACAGAGAUCGGAAGAGCACACGU
B5: target 1 MT 5'PFS CAC 3'PFS CUA (mixed)
RNA 1: CACCCGUGCAAAAAUGCAGGGGUCUAAAACUGAGCGGAUAACCUCUCUAUGG
RNA 2: GGGAAUGGAUCCACAUCUACGAAUUCCACCCAUAGAGAGGUUAUCCGCUCACUAAGAUCGGAAGAGCACACGU
B6: target 1 MT 5'PFS GGC 3'PFS UUG (mixed)
RNA 1: CACCCGUGCAAAAAUGCAGGGGUCUAAAACUGAGCGGAUAACCUCUCUAUGG
RNA 2: GGGAAUGGAUCCACAUCUACGAAUUCGGCCCAUAGAGAGGUUAUCCGCUCAUUGAGAUCGGAAGAGCACACGU
B7: target 1 MT 5'PFS UGC 3'PFS AAC (mixed)
RNA 1: CACCCGUGCAAAAAUGCAGGGGUCUAAAACUGAGCGGAUAACCUCUCUAUGG
RNA 2: GGGAAUGGAUCCACAUCUACGAAUUCUGCCCAUAGAGAGGUUAUCCGCUCAAACAGAUCGGAAGAGCACACGU
B8: target 1 MT 5'PFS GGC 3'PFS UUU (mixed)
RNA 1: CACCCGUGCAAAAAUGCAGGGGUCUAAAACUGAGCGGAUAACCUCUCUAUGG
RNA 2: GGGAAUGGAUCCACAUCUACGAAUUCGGCCCAUAGAGAGGUUAUCCGCUCAUUUAGAUCGGAAGAGCACACGU
B9: target 1 MT 5'PFS GGG 3'PFS AUU (mixed)
RNA 1: CACCCGUGCAAAAAUGCAGGGGUCUAAAACUGAGCGGAUAACCUCUCUAUGG
RNA 2: GGGAAUGGAUCCACAUCUACGAAUUCGGGCCAUAGAGAGGUUAUCCGCUCAAUUAGAUCGGAAGAGCACACGU
B10: target 1 MT 5'PFS UCC 3'PFS CUG (mixed)
RNA 1: CACCCGUGCAAAAAUGCAGGGGUCUAAAACUGAGCGGAUAACCUCUCUAUGG
RNA 2: GGGAAUGGAUCCACAUCUACGAAUUCUCCCCAUAGAGAGGUUAUCCGCUCACUGAGAUCGGAAGAGCACACGU
B11: target 1 MT 5'PFS GUC 3'PFS ACG (mixed)
RNA 1: CACCCGUGCAAAAAUGCAGGGGUCUAAAACUGAGCGGAUAACCUCUCUAUGG
RNA 2: GGGAAUGGAUCCACAUCUACGAAUUCGUCCCAUAGAGAGGUUAUCCGCUCAACGAGAUCGGAAGAGCACACGU
B12: target 1 MT 5'PFS GUG 3'PFS GCA (mixed)
RNA 1: CACCCGUGCAAAAAUGCAGGGGUCUAAAACUGAGCGGAUAACCUCUCUAUGG
RNA 2: GGGAAUGGAUCCACAUCUACGAAUUCGUGCCAUAGAGAGGUUAUCCGCUCAGCAAGAUCGGAAGAGCACACGU
B13: target 1 MT 5'PFS UGC 3'PFS AAA (mixed)
RNA 1: CACCCGUGCAAAAAUGCAGGGGUCUAAAACUGAGCGGAUAACCUCUCUAUGG
RNA 2: GGGAAUGGAUCCACAUCUACGAAUUCUGCCCAUAGAGAGGUUAUCCGCUCAAAAAGAUCGGAAGAGCACACGU
B14: target 1 MT 5'PFS UAG 3'PFS UUU (mixed)
RNA 1: CACCCGUGCAAAAAUGCAGGGGUCUAAAACUGAGCGGAUAACCUCUCUAUGG
RNA 2: GGGAAUGGAUCCACAUCUACGAAUUCUAGCCAUAGAGAGGUUAUCCGCUCAUUUAGAUCGGAAGAGCACACGU
B15: target 1 MT 5'PFS CAC 3'PFS CUG (mixed)
RNA 1: CACCCGUGCAAAAAUGCAGGGGUCUAAAACUGAGCGGAUAACCUCUCUAUGG
RNA 2: GGGAAUGGAUCCACAUCUACGAAUUCCACCCAUAGAGAGGUUAUCCGCUCACUGAGAUCGGAAGAGCACACGU
B16: target 1 MT 5'PFS CUG 3'PFS CAC (mixed)
RNA 1: CACCCGUGCAAAAAUGCAGGGGUCUAAAACUGAGCGGAUAACCUCUCUAUGG
RNA 2: GGGAAUGGAUCCACAUCUACGAAUUCCUGCCAUAGAGAGGUUAUCCGCUCACACAGAUCGGAAGAGCACACGU
B17: target 1 MT 5'PFS GUC 3'PFS ACC (mixed)
RNA 1: CACCCGUGCAAAAAUGCAGGGGUCUAAAACUGAGCGGAUAACCUCUCUAUGG
RNA 2: GGGAAUGGAUCCACAUCUACGAAUUCGUCCCAUAGAGAGGUUAUCCGCUCAACCAGAUCGGAAGAGCACACGU
B18: target 1 insU 3' of 22,insA 3' of 5 (mixed)
RNA 1: CACCCGUGCAAAAAUGCAGGGGUCUAAAACUGAGCGGAUAACCUCUCUAUGG
RNA 2: GGGAAUGGAUCCACAUCUACGAAUUCGUACUCAUAGAGAGGUUAUCCGACUCACCGAGAUCGGAAGAGCACACGU
B19: target 1 MT 5'PFS GUG 3'PFS GCU (mixed)
RNA 1: CACCCGUGCAAAAAUGCAGGGGUCUAAAACUGAGCGGAUAACCUCUCUAUGG
RNA 2: GGGAAUGGAUCCACAUCUACGAAUUCGUGCCAUAGAGAGGUUAUCCGCUCAGCUAGAUCGGAAGAGCACACGU
B20: target 1 insA 3' of 8,insA 3' of 2 (mixed)
RNA 1: CACCCGUGCAAAAAUGCAGGGGUCUAAAACUGAGCGGAUAACCUCUCUAUGG
RNA 2: GGGAAUGGAUCCACAUCUACGAAUUCGUACCAUAGAGAGGUUAUACCGCUCAACCGAGAUCGGAAGAGCACACGU
B21: target 1 MT 5'PFS UAU 3'PFS UGC (mixed)
RNA 1: CACCCGUGCAAAAAUGCAGGGGUCUAAAACUGAGCGGAUAACCUCUCUAUGG
RNA 2: GGGAAUGGAUCCACAUCUACGAAUUCUAUCCAUAGAGAGGUUAUCCGCUCAUGCAGAUCGGAAGAGCACACGU
B22: target 1 MT 5'PFS AAU 3'PFS CAU (mixed)
RNA 1: CACCCGUGCAAAAAUGCAGGGGUCUAAAACUGAGCGGAUAACCUCUCUAUGG
RNA 2: GGGAAUGGAUCCACAUCUACGAAUUCAAUCCAUAGAGAGGUUAUCCGCUCACAUAGAUCGGAAGAGCACACGU
B23: target 1 MT 5'PFS GAA 3'PFS ACG (mixed)
RNA 1: CACCCGUGCAAAAAUGCAGGGGUCUAAAACUGAGCGGAUAACCUCUCUAUGG
RNA 2: GGGAAUGGAUCCACAUCUACGAAUUCGAACCAUAGAGAGGUUAUCCGCUCAACGAGAUCGGAAGAGCACACGU
B24: target 1 MT 5'PFS GCG 3'PFS UGU (mixed)
RNA 1: CACCCGUGCAAAAAUGCAGGGGUCUAAAACUGAGCGGAUAACCUCUCUAUGG
RNA 2: GGGAAUGGAUCCACAUCUACGAAUUCGCGCCAUAGAGAGGUUAUCCGCUCAUGUAGAUCGGAAGAGCACACGU
B25: target 1 MT 5'PFS AAG 3'PFS UCU (mixed)
RNA 1: CACCCGUGCAAAAAUGCAGGGGUCUAAAACUGAGCGGAUAACCUCUCUAUGG
RNA 2: GGGAAUGGAUCCACAUCUACGAAUUCAAGCCAUAGAGAGGUUAUCCGCUCAUCUAGAUCGGAAGAGCACACGU
B26: target 1 MT 5'PFS UCC 3'PFS CUC (mixed)
RNA 1: CACCCGUGCAAAAAUGCAGGGGUCUAAAACUGAGCGGAUAACCUCUCUAUGG
RNA 2: GGGAAUGGAUCCACAUCUACGAAUUCUCCCCAUAGAGAGGUUAUCCGCUCACUCAGAUCGGAAGAGCACACGU
B27: target 1 MT 5'PFS GAA 3'PFS ACC (mixed)
RNA 1: CACCCGUGCAAAAAUGCAGGGGUCUAAAACUGAGCGGAUAACCUCUCUAUGG
RNA 2: GGGAAUGGAUCCACAUCUACGAAUUCGAACCAUAGAGAGGUUAUCCGCUCAACCAGAUCGGAAGAGCACACGU

This data set has as its target T1, EsCas13d, nuclease-dead. The data set can be described thus: crRNA (strand 1, pre-loaded); Mg2+; 40 mM Tris-HCl pH 7.5, 150 mM NaCl, 6 mM MgCl2, 1 mM DTT, 0.1% Tween-20, 0.2 mg/ml BSA; 25 C; 10 min per concentration, then washed. Particulars: tags: His6-TwinStrep-SUMO cleaved; N-terminal SNAP kept (SNAP-Surface 488); label: 3' end held by stalled T7 RNA polymerase.
As a reminder, the Kd is the free concentration of one partner at which half of the binding sites on the other are occupied at equilibrium, for simple one-to-one binding. Read a high Kd as lower affinity. Consider B1, for which binding was put at a Kd of 12.9 ± 1.1 nM.
Under B2 stands 14.7 ± 0.7 nM; under B3, 80 ± 40 nM; under B4, 74 ± 30 nM.
On to B5, for which binding was characterised by a dissociation constant (Kd) of 16 ± 5 nM.
The same measure for B6: 9 ± 1.2 nM; for B7: ~40 nM.
Take B8: binding was put at a Kd of 11.3 ± 1.85 nM.
Under B9 stands 17.3 ± 2.1 nM.
The same measure for B10: 14.5 ± 4.5 nM; for B11: 25 ± 6.6 nM; for B12: 26 ± 4 nM.
Regarding B13, the Kd is ~50 nM.
The same measure for B14: 23.4 ± 3.05 nM.
For the molecule B15, the Kd is ~17 nM.
The same measure for B16: 5.25 ± 1.6 nM; for B17: 25.8 ± 4.2 nM; for B18: 18.8 ± 1.6 nM.
The same measure for B19: 7 ± 0.7 nM; for B20: 17.9 ± 0.6 nM; for B21: ~59.5 nM.
For B22, binding was characterised by a dissociation constant (Kd) of 100 ± 45 nM.
B23: the Kd was ~82 nM.
Take B24: the Kd amounted to 41.5 ± 8.5 nM.
The same measure for B25: 12.1 ± 3.65 nM.
The same measure for B26: ~24 nM; for B27: ~80 nM.

The record behind these values is publication PMC10786891, “Massively parallel profiling of RNA-targeting CRISPR-Cas13d”.
